Data from PMC6760278.

Biological target: T1, OsNPPR1-repeat-MBP (Oryza sativa (rice), UniProt Q6Z2B6 182-806)
T1 sequence: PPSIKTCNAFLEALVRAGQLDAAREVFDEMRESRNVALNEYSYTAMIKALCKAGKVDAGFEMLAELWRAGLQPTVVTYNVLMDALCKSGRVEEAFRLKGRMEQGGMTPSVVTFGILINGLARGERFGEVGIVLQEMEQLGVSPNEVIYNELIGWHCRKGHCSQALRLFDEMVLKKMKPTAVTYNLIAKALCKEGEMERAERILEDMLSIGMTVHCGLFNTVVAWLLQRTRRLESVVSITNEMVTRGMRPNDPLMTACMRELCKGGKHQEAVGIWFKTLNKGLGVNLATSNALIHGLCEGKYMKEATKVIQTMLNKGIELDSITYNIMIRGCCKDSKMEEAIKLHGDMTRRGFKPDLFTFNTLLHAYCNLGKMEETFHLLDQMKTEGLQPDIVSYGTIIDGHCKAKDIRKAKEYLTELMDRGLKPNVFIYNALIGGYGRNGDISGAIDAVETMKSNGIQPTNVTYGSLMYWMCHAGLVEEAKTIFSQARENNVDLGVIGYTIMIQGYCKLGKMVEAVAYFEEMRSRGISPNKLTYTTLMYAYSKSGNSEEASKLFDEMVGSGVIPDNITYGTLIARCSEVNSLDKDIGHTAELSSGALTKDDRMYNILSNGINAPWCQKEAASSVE
Experiment: EMSA

CUCACCUCACCUCACCUCACCUCACCUCAC (ssRNA) [CUCAC probe]
binding result: binds
